Data from PMC7265321 (The Journal of Cell Biology, 2020).
Residue numbers refer to the chain shown, from its start.

B1: GST-MEL-26 (natural protein, C. elegans, UniProt Q94420 1-395, looked up)
chain: MEPRIDGGVFIGGIGNSGNEMCSNGVPALGVSSQTEIKVEKVQHTWTVKNFSHCYQEYLENFVYLQRGDEQLTWSIKIYPKGNGENNKDFVFLCLNRVINNNVKAGKIGFKSQFKLRTAENKDIEMRIHPNPSHSDYVSYIKRDVLFPQIMPRDMIIVNVEIDVAVETITTTNEPIQFEPTNSEQQLIEDYQRLFSQELLCDFAINVNGKIIRAHKAVLAARSPVFNAMLTHQDTDEAKSSMMYINDMDYDVIYEMVYYIYCGRCNKDITDMATALLIAADKYRLEELKSHCEKYLVENINIENACSLLIIGDLYSAPKLRKRAVTYILARPKNVTGTPGWEDILKGHPNLITDIFSQIDRQSSTGATSSVSNLPGVPMDIPGITGNIVPPPSGL

Legend:
MEL-26 [1] = target: MEL-26 (UniProt Q94420); assay: Far-Western after SDS-PAGE; settings: reference: unmodified wild type; sites S92
MEL-26 [2] = target: MEL-26 (UniProt Q94420); assay: native dot blot of Katanin; settings: reference: unmodified wild type; sites S92
MEI-1 S92-aaPho-6xHis = target: T1, MEI-1 S92-aaPho-6xHis (C. elegans, UniProt P34808 1-472, phosphoserine at 92 (100% by mass spectrometry)); assay: far-Western
T1 sequence (looked up): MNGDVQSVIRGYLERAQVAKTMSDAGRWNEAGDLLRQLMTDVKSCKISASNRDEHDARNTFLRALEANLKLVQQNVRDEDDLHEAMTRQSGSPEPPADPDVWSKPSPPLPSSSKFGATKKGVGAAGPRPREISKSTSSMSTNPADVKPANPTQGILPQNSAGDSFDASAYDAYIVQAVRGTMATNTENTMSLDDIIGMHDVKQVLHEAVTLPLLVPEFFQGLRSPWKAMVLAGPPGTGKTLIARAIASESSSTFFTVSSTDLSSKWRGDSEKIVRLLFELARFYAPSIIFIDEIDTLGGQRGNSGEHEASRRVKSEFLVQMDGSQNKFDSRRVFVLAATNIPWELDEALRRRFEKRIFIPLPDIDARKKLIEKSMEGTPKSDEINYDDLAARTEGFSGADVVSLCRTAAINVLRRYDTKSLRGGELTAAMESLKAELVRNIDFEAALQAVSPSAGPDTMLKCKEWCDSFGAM

6xHis-MEI-1 S92D = target: T2, 6xHis-MEI-1 S92D (C. elegans, UniProt P34808 1-472, S92D); assay: far-Western
T2 sequence (looked up): T1 sequence (looked up) with S92D

[3] = target: T3, Katanin with MEI-1 S92D (6xHis-MEI-1 S92D / Strep-MEI-2) (C. elegans, UniProt P34808 1-472; O44740 1-280, S92D); assay: overlay or dot blot
T3 sequence (looked up) 1: T1 sequence (looked up) with S92D
T3 sequence (looked up) 2: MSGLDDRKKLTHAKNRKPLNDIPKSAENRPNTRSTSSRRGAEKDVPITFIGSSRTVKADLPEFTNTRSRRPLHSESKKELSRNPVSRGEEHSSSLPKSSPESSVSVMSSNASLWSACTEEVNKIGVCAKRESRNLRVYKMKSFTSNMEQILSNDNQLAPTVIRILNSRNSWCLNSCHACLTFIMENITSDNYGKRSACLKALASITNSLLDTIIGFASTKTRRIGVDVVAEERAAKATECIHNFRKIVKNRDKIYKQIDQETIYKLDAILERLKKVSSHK

Molecule | binding against the reference (MEL-26 [1]) | binding against the reference (MEL-26 [2]) | binding result (MEI-1 S92-aaPho-6xHis) | binding result (6xHis-MEI-1 S92D) | binding result [3]
MEI-1 (Katanin p60 catalytic subunit) (from UniProt P34808) S92-aaPho (phosphoserine by genetic code expansion) | stronger | stronger | – | – | –
B1 | – | – | binds | binds | binds
